Laboratory results reported in IntAct's records for PubMed 18034774.

B1: Ras-related protein Rab-5A (Homo sapiens), P20339 (parent)
chain: MASRGATRPNGPNTGNKICQFKLVLLGESAVGKSSLVLRFVKGQFHEFQESTIGAAFLTQTVCLDDTTVKFEIWDTAGQERYHSLAPMYYRGAQAAIVVYDITNEESFARAKNWVKELQRQASPNIVIALSGNKADLANKRAVDFQEAQSYADDNSLLFMETSAKTSMNVNEIFMAIAKKLPKNEPQNPGANSARGRGVDLTEPTQPTRNQCCSN
partner: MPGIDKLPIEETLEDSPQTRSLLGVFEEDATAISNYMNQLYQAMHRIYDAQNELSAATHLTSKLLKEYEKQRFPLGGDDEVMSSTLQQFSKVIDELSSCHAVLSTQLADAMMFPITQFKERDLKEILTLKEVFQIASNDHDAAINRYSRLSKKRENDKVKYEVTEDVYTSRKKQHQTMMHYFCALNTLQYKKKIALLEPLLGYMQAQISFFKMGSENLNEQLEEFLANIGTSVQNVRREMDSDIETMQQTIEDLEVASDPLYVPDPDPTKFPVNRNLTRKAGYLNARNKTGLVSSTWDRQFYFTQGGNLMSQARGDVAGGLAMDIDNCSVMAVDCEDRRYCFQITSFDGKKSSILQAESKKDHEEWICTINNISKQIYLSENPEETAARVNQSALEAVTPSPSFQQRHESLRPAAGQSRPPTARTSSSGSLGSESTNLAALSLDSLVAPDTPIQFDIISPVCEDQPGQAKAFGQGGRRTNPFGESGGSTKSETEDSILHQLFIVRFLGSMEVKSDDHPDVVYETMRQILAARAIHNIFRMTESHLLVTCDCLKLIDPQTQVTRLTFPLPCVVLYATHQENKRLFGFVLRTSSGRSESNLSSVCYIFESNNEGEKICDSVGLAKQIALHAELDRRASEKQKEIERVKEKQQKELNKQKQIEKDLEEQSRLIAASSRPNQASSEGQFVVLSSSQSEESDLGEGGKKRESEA

Variants of: B1
Conditions: with dp13a_human APPL1, Q9UKG1

| Variant | effect of a mutation on the interaction |
| --- | --- |
| MASRGATRPNGPNTGNKICQFKLVLLGESAVGKNSLVLRFVKGQFHEFQESTIGAAFLTQTVCLDDTTVKFEIWDTAGQERYHSLAPMYYRGAQAAIVVYDITNEESFARAKNWVKELQRQASPNIVIALSGNKADLANKRAVDFQEAQSYADDNSLLFMETSAKTSMNVNEIFMAIAKKLPKNEPQNPGANSARGRGVDLTEPTQPTRNQCCSN [S34N] | disrupting interaction strength |
